Substitutions are numbered along the chain they refer to.
B1: H02L01-PBD (conjugate)
heavy: EVQLVESGGGLVQPGGSLRLSCAASGFTFRDYYMAWVRQAPGKGLEWVSSIGFDESRTYYADSVKGRFTISRDDSKNTLYLQMNSLRAEDTAVYYCARHGVSYYSGDNWFAYWGQGTLVTVSSASTKGPSVFPLAPSSKSTSGGTAALGCLVKDYFPEPVTVSWNSGALTSGVHTFPAVLQSSGLYSLSSVVTVPSSSLGTQTYICNVNHKPSNTKVDKKVEPKSCDKTHTCPPCPAPEAAGGPSVFLFPPKPKDTLMISRTPEVTCVVVDVSHEDPEVKFNWYVDGVEVHNAKTKPREEQYNSTYRVVSVLTVLHQDWLNGKEYKCKVSNKALAAPIEKTISKAKGQPREPQVYTLPPSREEMTKNQVSLTCLVKGFYPSDIAVEWESNGQPENNYKTTPPVLDSDGSFFLYSKLTVDKSRWQQGNVFSCSVMHEALHNHYTQKSLSLSPGK
light: DIQMTQSPSSLSASVGDRVTITCKSSQGLLYSGDQKNYLAWYQQKPGKAPKLLIYWASTRQSGVPSRFSGSGSGTDFTLTISSLQPEDFATYYCQQYYDPPYTFGQGTKVEIKRTVAAPSVFIFPPSDEQLKSGTASVVCLLNNFYPREAKVQWKVDNALQSGNSQESVTEQDSKDSTYSLSSTLTLSKADYEKHKVYACEVTHQGLSSPVTKSFNRGEC
B2: H02L01-V2-PBD (conjugate)
heavy: B1 heavy with Y103R
light: B1 light
B3: H02L01-V1-PBD (conjugate)
heavy: B1 heavy with Y103K
light: B1 light

Experiments:
[1] = system: Triple-negative breast carcinoma cell line HCC1806; assay: In vivo antitumor effect, HCC1806 subcutaneous transplant model; conditions: 0.4 mg/kg, tail vein, on Day 7, female SCID mice
Description: The antitumor effects of the antibody-drug conjugates were evaluated by using animal models in which cells of a human tumor cell line had been transplanted into immunodeficient mice, or cells of a mouse tumor cell line had been transplanted into immunocompetent mice. 4 to 6 Week-old SCID mice (CB17/Icr-Prkdc[scid]/CrlCrlj, Jackson Laboratory Japan, Inc.), NSG mice (NOD.Cg-Prkdcscid Il2rgtm1Wjl/SzJ, Jackson Laboratory Japan, Inc.), or B6J mice (C57BL/6J, Jackson Laboratory Japan, Inc.) were habituated for 3 days or more under SPF conditions before experimental use. The mice were fed with sterilized solid feed and given sterilized tap water. The major and minor diameters of the transplanted tumors were measured twice a week with an electronic digital caliper (Mitutoyo Corporation), and the estimated tumor volume was calculated using the following formula. Estimated tumor volume (mm^3) = 1/2 × major diameter (mm) × [minor diameter (mm)]^2 All antibody-drug conjugates were diluted with ABS and administered into the tail vein at doses shown in each Example. In addition, ABS (vehicle) or control hIgG-PBD prepared in Reference Example 4 was administered as the control group, in a similar manner. 5 to 6 Mice were used per group in the experiment. To analyze the LRRC15 expression in mouse tumor models, immunohistochemical staining of LRRC15 was performed. […]

[2] = system: LRRC15-negative human lung carcinoma cell line EBC-1; assay: In vivo antitumor effect, EBC-1 subcutaneous transplant model; conditions: tail vein, on Day 9, female SCID mice
Description: The antitumor effects of the antibody-drug conjugates were evaluated by using animal models in which cells of the human tumor cell line had been transplanted into immunodeficient mice. 4 to 6 Week-old SCID mice (CB17/Icr-Prkdc[scid]/CrlCrlj, Jackson Laboratory Japan, Inc.) were habituated for 3 days or more under SPF conditions before experimental use. The mice were fed with sterilized solid feed (FR-2, Funabashi Farms Co., Ltd.) and given sterilized tap water (prepared by adding a solution of 5 to 15 ppm sodium hypochlorite). The major and minor diameters of the transplanted tumors were measured twice a week with an electronic digital caliper ([…] Corporation), and the estimated tumor volume was calculated using the following formula. Estimated tumor volume (mm^3) = 1/2 × major diameter (mm) × [minor diameter (mm)]^2 All antibody-drug conjugates were diluted with ABS and administered into the tail vein at doses shown in each Example. In addition, ABS (vehicle) or control hIgG-PBD prepared in Reference Example 4 was administered as the control group, in a similar manner. 5 to 6 Mice were used per group in the experiment. LRRC15-negative human lung carcinoma cell line EBC-1 (JCRB) was suspended in PBS mixed with 50% Matrigel (Corning Incorporated), 1.0 × 10^6 cells were subcutaneously transplanted into the right flank of female SCID mice (Day 0), and random grouping was performed on Day 9. From publicly known information, it is known that in this tumor model, carcinoma cells are LRRC15 negative, and cells in the tumor stroma are LRRC15 positive (International Publication No. 2017/095805). On the day of grouping, a vehicle, the antibody-drug conjugate […]-PBD, […]-V1-PBD, or […]-V2-PBD prepared in Example 5 was administered into the tail vein at a dose of 0.4 mg or 0.2 mg/kg. The abscissa indicates the number of days, and the ordinate indicates estimated tumor volume, and the error bars indicate SEM values. […] The antitumor effects of the antibody-drug conjugates were evaluated by using animal models in which cells of a human tumor cell line had been transplanted into immunodeficient mice, or cells of a mouse tumor cell line had been transplanted into immunocompetent mice. 4 to 6 Week-old SCID mice (CB17/Icr-Prkdc[scid]/CrlCrlj, Jackson Laboratory Japan, Inc.), NSG mice (NOD.Cg-Prkdcscid Il2rgtm1Wjl/SzJ, Jackson Laboratory Japan, Inc.), or B6J mice (C57BL/6J, Jackson Laboratory Japan, Inc.) were habituated for 3 days or more under SPF conditions before experimental use. The mice were fed with sterilized solid feed and given sterilized tap water. The major and minor diameters of the transplanted tumors were measured twice a week with an electronic digital caliper (Mitutoyo Corporation), and the estimated tumor volume was calculated using the following formula. […]

Molecule | antitumor effect (estimated tumor volume) [1] | antitumor effect (estimated tumor volume) ([2]; 0.4 mg or 0.2 mg/kg) | antitumor effect (estimated tumor volume) ([2]; 0.3 mg/kg, huM25-PBD at the same dose)
B1 | antitumor activity higher than that of the vehicle | antitumor activity higher than that of the vehicle group | –
B2 | – | antitumor activity higher than that of the vehicle group | –
B3 | antitumor activity higher than that of the vehicle | antitumor activity higher than that of the vehicle group | antitumor activity higher than that of the vehicle and huM25-PBD

Source: EP4703474A1, “ANTI-LRRC15 ANTIBODY” (priority 2023, dated 2024)
